Test results: the nanobody polyreactivity screen of Harvey et al. (2022)

Assay: yeast display, Sf9 membrane polyspecificity reagent, FACS + sequencing; frameworks hold sequencing errors
In short: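 Polyreactivity labels are assigned by the sorting gate from which each nanobody was recovered. The gates were low and high (top ~1%), set on anti-HA fluorescence for expression and streptavidin fluorescence for reagent binding. Before sorting, galactose-induced (36–48 hours) yeast display cells were stained for 1 hour at 4 °C with 10% biotinylated, detergent-solubilized Sf9 membrane reagent.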

Row | Sequence | polyreactivity (PSR sort gate)
1 | QVQLVESGGGLFQAGGSLRLSCAASGFIFRSNAMGGYRHAPGKERELVAAISGGGITYYADSVKGRFTISRDNAKNTVYLQMNSLKPEDTAVYYCAVRWYFKTHWGGYHPYEYCGQGTQVTVSS | high polyreactivity
2 | QVQLVESGGGLVQAGGSLRLSCAASGFIFDYYAMGWYRQAPGKERELVAAISGSGTSTYYADSVKGRFTISRDNAKYTVYLQMNSLKPEDTAVYYCSAESDWWSDIGYYWGQGTQVTVSS | high polyreactivity
3 | QVQLVESGGGLVQAGGSLRLSCAASGGIFIYNAMGWYRQAPGKEREFVAAINISGGNTYYADSVKGRFTISRDNAKNTVYLQMNSLKPEDTAVYYCAKSGRYGFWGQGTQVTVSS | high polyreactivity
4 | QVQLVESGGGLVQAGGSLRLSCAASGFIFYNALGWYRQAPGKERELVAAISSGGNTNYADSVKGRFTISRDNAKNTVYLQMNSLKPEDTAVYYCNAGLYQYDGWANYIRYDYWGQGTQVTVSS | low polyreactivity
5 | QVQLVESGGGLVQAGGSLRLSCAASGRTFRWNAIGWYRQAPGKERELVASISSGGRTNYADSVKVRFTISRDNEKNTVYLQMNSLKPEDTAVYYCAKRVSWPQLYDYWGQGTQVTVSS | high polyreactivity
6 | QVQLVESGGALVQAGGSLRLSCAASGGILQYNAMGWYRQAPGKEREFVAAITTSGGSTYYADSVKGRFTISRDNAKNTVYLQMNSLKPEDTAVYYCAADSWWGIYYSGYDYWGQGSQVTVSS | low polyreactivity
7 | QVQHVESGGGLVQAGGSLRLSCAASGFISYFYAMGWYRQAPGKERELVPVNTQSGGSTYFADSVKGRFTISRDNAKNTVYLQMNSLKPEDTAVYYCNADTVRDYPFFSVSYYYWGQGTQVTVSS | low polyreactivity
8 | QVQLVESGGGLVQAGGSLRLSCAASGRTFALYAMGWYRQAPGTERELVASISWRGGSTYYADSVKGRFTISRDNAKNTVYLQMNSLKPEDTAVYYCAADTWSYGPLNYRLEYWGQGTQVTVSS | low polyreactivity
9 | QVQLVESGGGLVQAGGSLRLSCAASGSIFFANAMGWYRQAPGKERELVATITSGGSTTYADSVKGRFTISRDNAKNTVYLQMNSLKPEDTAVYYCNADYDYGWVFYSNYDYWGQGTQVTVSS | low polyreactivity
10 | QAQLVESGGGLVQAGGSLRLSCAASGSTSLDNAMGWYRQAPGKERELVAAIRWRGSITFYADSVKGRFTISRDNAKNTVYLQMNSLKPEDTAVYYCAVTLRYTRSGAYDYWGQGTQVTVSS | low polyreactivity
11 | QVQLVESGGGLVQAGGSLRLSCAASGSTFTTYAMRWYRQAPGKERELLAAITRGGGRTYYSDSVKGRFTISRDYAKNTVYLLMNSLKPEDTAVYYCNAGRSNSPCGRPYDYWGQGTQVTVSS | high polyreactivity
12 | QVQLVESGGGLVQAGGSLRLSCAASGRTFFYNAMGWYRQAPGKERELVAAISSGGGSTYYADSVKGRFTISRDNAKNTVYLQMNSLKPEDTAVYYCAAASYRQPGYGYWGQGTQVTVSS | high polyreactivity
13 | QVQLVESGGGLVQAGGSLRLSCAASGLIFRRNAMGWYRQAPGKERELVAAISRSSGSTYYADSVKGRFTISRDNAKNTVYLQMNSLKPEDTAVYYCAVHVWGTYGSWEYYYWGQGTQVTVSS | high polyreactivity
14 | QVQLQESGGGLEQAGGSLRPSCAASGSISDGVPMGWYRQAPGEERELVATTVLGATTNYADSVKGRFTISRGNAKNTVYLQMNSLKPEETAVYYCAAPLRYDKGFSYWGQGTQVTVSS | low polyreactivity
15 | QVQLVESGGGLVQAGGSRRLSCAASGSTFYGYAMGWYRQAPGKEREFVAAITTSGGSTYYADSVKGRFTISRDNAKNTVYLQMNSLKPEDTAVYYCAADGFYYDDGYWGQGTQVTVSS | low polyreactivity
16 | QVQLVESGGGLVQAGGSLRLSCAASGSTFQVNAMGWYRQAPGKERELVASISGGSSTNYADSVKGRFTISRDNAKNTVYLQMNSLKPEDTAVYYCAAYYLSGLRVAYDYWGQGTQVTVSS | low polyreactivity
17 | QVQLEESGGGLVQPGGSLRLSCAASGRIFADYAMGWYRQAPGKERELVADIRQSGGRTYYADSVKGRFTISRDNAKNTVYLQMNSLKPEDTALYYCATDYGSWGDYSGKYDYWGQGTQVTVSS | low polyreactivity
18 | QVQLVESGGGLVQAGGSLRLSCAASGRTFAINAMGWHRQAPGKERELVADITTDGSTYYADSVKGRFTISRDNAKNTVYLQMNSLKPEDTAVYYCATDSLDYFIRFKQFGYWGQGTQVTVSS | low polyreactivity
19 | QVQLVESGGGLVQAGGSLRLSCAASGSTFKYNAMGWYRQAPGKERELVASISRSGGSTYYADSVKGRFTISRDNAKNTVYLQMNSLKPEDTAVYYCNVRRFVHYEYWGQGTQVTVSS | high polyreactivity
20 | QVQLVESGGGLVQAGGSLRLSCAASGSILGGNAMGWYRQAPGKERELVAAITFSGGGTYYADSVKGRFTISRDNGKNTVYLQMNSLKPEDTALYNCAADKDGYTYEFDYWGQGTQVTVSS | low polyreactivity
21 | QVQLVESGGGLVQAGGSLRLSCADSGFIFRYNTMGWYRQAPGKERELVAAITSGDSTYYADSVKGRFTITRDNAKNTVYLQMNSLKPEDTEVYYCAARPYSGRNKYDYWGQGTQVTVSS | high polyreactivity
22 | QVQLVESGGGLVQAGGSLRLSCAAYGSIFGSYCMGWYRQAPGKERELVAAIRVSGGSTYYADSVKGRFTISRDNAKNTVYLQMNSLKPEDTAVYYCAARARSTPRKYYYTRGYWGQGSQVTVSS | high polyreactivity

Row | Sequence | polyreactivity (PSR sort gate)
23 | QVQLVESGGGLVQAGGSLRLSCAASGLTFPSYAMGWYRQAPGKERELVAAISSGDSTNYADSVKGRFTISRDNAKNTVYLQMNSLKPEDTAVYYCAVGLPHGGRRLYGSWYRFDYWGQGTQVTVSS | low polyreactivity
24 | QVQLEESGGGLVQAGGRLRLSCAASGGNFNYYPMGWYREAPGKERELVAAITRGGSTYYADSVKGRFTISRDNAKNTVYLQMNSLKPEDTAVYYCAAGWRRYDKSPLEGSWGQGTQVTLSS | high polyreactivity
25 | QVQLVESGGGLVQAGGSLRLSCAASGRIFWLYAMGWYRQAPGKERELVAVISWSGGTTYYADSVKGRFTISRDNAKNTVYLQMNSLKPEYTAVYYCAAQVGYYTNYGEFDYLGQGTQVTVSS | low polyreactivity
26 | QVQLVESGGGLVQAGGCLRLSCAASGRTFYRNVMGWYRQAPGKEREWVGAISSRGGSTYYADSVKGRFTISRDNAKNTVYLQMNSLKPEDTAVYYCAAEGTYYGSDYWGQGTQVTVSS | high polyreactivity
27 | QVQLVESGGGLVQAGGSLRLSCAASGRTFKVNAMGWYRQAPGKERELVAAITYSGGGTYYADSVKGRFTISRDNAKNTVYLQMNSLKPEDTAVYYCAAPVYTWYHRYDYWGQGTQVTVSS | high polyreactivity
28 | QVQLVESGGGLVQAGGSLRLSCAASGFTFDENAMGWYRQAPGINYSGASTYYADSVMGRFTFSRDNAKNTVYLQMNSLKPEDTAVYYCAAEVVAQMNYWGQGTQVTVSS | low polyreactivity
29 | QVQLVESGGGLVQAGGSLRISCAASGRIFPFYAMGWYRQAPGKDRELVAAIRSGGGSTYYADSVKGRFTISRDNAKKTVYLQRNSLKPEDTAVYYCTARGRLGSAGRYNYWGQGTQVTVSS | high polyreactivity
30 | QVQLVESGGRLVQAGGSLRLSCAASGTFDLSAMGWYSQAPGKERELVAAITYRGDTTYYADSVKGRFTISRDNAKNTVYLQMNSMKPEDTAVYYCAAEWYYQFSSWYDYWGQGSQVTVSS | high polyreactivity
31 | QVQLVESGGGLVQAGGSLRLSCAASGIIFPRYAMGWYRQAPGKEREVVAAITSGGSTYYADSVKGRFTISRDNAKNTVYLQINSLKPEDTAVSYCAAVRYSWDIYREYYYWGQGTQVTVSS | high polyreactivity
32 | QVQLVESGGGLVQAGGSLRLSCAASGRIFRANTMGWYRQAPGKERELVATSSKNGGRTYYADSVKGRFTISRDNAKNTVYLQMNSLKPEDTAVYYCNAEWRGWRFLEYGSYIYQSGYWGQGTQVTVSS | high polyreactivity
33 | QVQLVESGGGLVQAGGSLRLSCAASGFIFNGNAMGWYIQAPGKERELVVAISKSGGRTYYADSVKGRFTISRDNAKYTVYLQMNSLKPEDTAVYDCARRTYTRMYWGQGTQVTVSS | high polyreactivity
34 | QVQLVESGGGLVQAGGSLRLSCAASGSIFRRNPMGWYRQAPGKESELVAAISSSGGSTYYADSVKGGFTISRDIAKNTFYLQMNSVKPEDTAVYYCAARFGPQYRFDYWGQGTQVTVSS | high polyreactivity
35 | QVQLVESGGGLVQAGGSLRLSCAASGSTFYLYAMGWYRQAPWKEREFVARITWSGGSTYYADSVKGRFTISRDNAKNTVYLQMNSLKPEDTAVYYCNATKTGPATVRYYYWGQGTQVTVSS | high polyreactivity
36 | QVQLVESGGGLVQAGGSLRLSCAASGRIFYSYTMGWYRQAPGKERELVAGINRSVGSTYYADSVKGRFTISRDNAKNTVYLQMNSLKPEDTAVYYCAAGSRRRSYYTFSSVHGHYYWGQVTQVTVSS | high polyreactivity
37 | QVQLVESGGGLVQAGGSLRLSCAASGRIFKNNTMGWYRQAPGKERELVAAISCSGGSTYYADSVKGRFTISRDNAKNTVYLQINSLKPEDTAVYYCATTYEPNGGIEDDYWGQGTQVTVSS | low polyreactivity
38 | QVQLVESGGGLVQAGGSLRLSCAAYGSTFYAYAMGWYRQAPGKERELVAAITYRDARTYYADSVKGRFTISRDNAKNTVYLQMISLKPEDTAVYYCARKTGFTVRRYDYWGQGTQVTVSS | high polyreactivity
39 | QVQLVESGGGLVQAGGSLRLSCAASGSTFDGYAMGWYRQAPGKERELVAAITSSSTSTYYADSVKGRFTISRDNAKNTVYLQMYSLKPEDTAVYYCAAQYFSYISVYSFYTMGYWGQGTQVTVSS | low polyreactivity
40 | QVQLVESGGGLVQAGGSLRLSCAASGRTFAYYAMGWYRQAPGKERELVAAISTNGGTYYADSVKGRFTISRDNAKNTVYFQLNSLKPEDTAVYSCAAYTSYDVDYWGQGTQVTVSS | low polyreactivity
41 | QVQLVETGGGLVQAGGSLRLICAASASTFGYYAMGWYRQAPGKERELVAGIRYRGGSTSYADSVKGRFTISRDNAKNTVYLQLNSLKREDTAVYYCANGIYRGRTSSFRMGYWGQVTQVTVSS | low polyreactivity
42 | QVHLVESGVGLDQAGGSLRLSCASTGYIFETYAMGWYRPATGKERELVAAISRGASTYYADSVKGRFTISRDNAQNTVSLQLNSLKQEDTAVYYCAPTRRSWHRYGYWGQGTQVTVSS | low polyreactivity
43 | QVQLVESGGGLVQAGGSLRLSCAASGFTFTENVMGWYRQAPGKEREFVAAITYIGGRTYYADSVKGRFTISRDNAKNTVYFQMNSLKPEDTAVYYCAADWAYYVDSYLYYTFDYWGQGTQVTVSS | low polyreactivity
